Data from PMC4180971 (Genes & Development, 2014).
Blank lines part the entries; values can stand above or below the binder they belong to.

How the values were obtained:
[1] = biological target: T1, Est3-(Flag)3 (S. cerevisiae, UniProt Q03096 1-181); assay: co-IP
T1 sequence (looked up): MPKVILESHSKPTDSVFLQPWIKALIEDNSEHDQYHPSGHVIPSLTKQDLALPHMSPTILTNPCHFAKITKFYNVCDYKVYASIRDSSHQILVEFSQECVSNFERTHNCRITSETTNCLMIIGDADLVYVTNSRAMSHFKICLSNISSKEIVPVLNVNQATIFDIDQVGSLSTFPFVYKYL

[2] = biological target: T1, Est3-(Flag)3; assay: co-IP; remark: listed apart in the source

- fold reduction in the tlc1-59 strain against the TLC1 strain [1]: ~20 fold
- Est1:Est2 ratio in the anti-Est3 immunoprecipitate [2]: ~4 Est1 per Est2
B1: Est1-(myc)12 (natural protein, S. cerevisiae, UniProt P17214 1-699, looked up)
chain: MDNEEVNEECMRLFFKNARAHLDKHLTSRLTCDENAYITFRCFLDGIHRKSTRFLEELLLKQENMYHNNNYERINDSVIPLVLKLLWLQIHEPTLQWFEHWFHDIMRLSNRRKFRVFRIFQKKMIQFFKITHRYYYDIIEHLCAKYDMNSVISNALFAKLNLMQYTDGLSTHEKIILNTSNPLTFSIVISLQRCVINLGSTHFYKTLLNKPSNKPKSVEGFEKSIRYLNIASLYLPAVGDTYFQRAKIYLITGKFSLYFFELVRGALVRIPSKCALNNLKDFILTPDFPERRRLMKKLAILVSKDLKGEKSFFEGQIVLQFLSIVEHTLVPQSWNASRASNCWLLKEHLQMAALKYHSGNINVILENLAATMGSFDLMFTTRKSKEQKNKLKYADLSERQVFFLDLSFDFIANIIDVVIKPSWQKNMEDFRYLAIIRLLMCWIKSYRSILQYTHRHRKFCTSFALLLNDLINSPLNCSGNIYSHRPKRSYLFREDIIFREFSCINFALTDFNDDYVYDSPDMINNIIGCPTLTKVLSPKEECVLRIRSIIFSGMKFLEKNDTGVIWNASKYKFDLISPNIKIKRQIALSEISSKINVKTQQERVVSSRKVEAKRDEQQRKRAGKIAVTELEKQFANVRRTKKLSPLPEKDGVSSELVKHAASRGRKTITGPLSSDFLSYPDEAIDADEDITVQVPDTPT

- fold higher co-precipitation in G2/M than in G1 [2]: ~20 fold
- fold increase in G2/M against G1 (quaternary complex) [2]: ~20 fold
B2: (myc)12-Est2 (natural protein, S. cerevisiae, UniProt Q06163 1-884, looked up)
chain: MKILFEFIQDKLDIDLQTNSTYKENLKCGHFNGLDEILTTCFALPNSRKIALPCLPGDLSHKAVIDHCIIYLLTGELYNNVLTFGYKIARNEDVNNSLFCHSANVNVTLLKGAAWKMFHSLVGTYAFVDLLINYTVIQFNGQFFTQIVGNRCNEPHLPPKWAQRSSSSSATAAQIKQLTEPVTNKQFLHKLNINSSSFFPYSKILPSSSSIKKLTDLREAIFPTNLVKIPQRLKVRINLTLQKLLKRHKRLNYVSILNSICPPLEGTVLDLSHLSRQSPKERVLKFIIVILQKLLPQEMFGSKKNKGKIIKNLNLLLSLPLNGYLPFDSLLKKLRLKDFRWLFISDIWFTKHNFENLNQLAICFISWLFRQLIPKIIQTFFYCTEISSTVTIVYFRHDTWNKLITPFIVEYFKTYLVENNVCRNHNSYTLSNFNHSKMRIIPKKSNNEFRIIAIPCRGADEEEFTIYKENHKNAIQPTQKILEYLRNKRPTSFTKIYSPTQIADRIKEFKQRLLKKFNNVLPELYFMKFDVKSCYDSIPRMECMRILKDALKNENGFFVRSQYFFNTNTGVLKLFNVVNASRVPKPYELYIDNVRTVHLSNQDVINVVEMEIFKTALWVEDKCYIREDGLFQGSSLSAPIVDLVYDDLLEFYSEFKASPSQDTLILKLADDFLIISTDQQQVINIKKLAMGGFQKYNAKANRDKILAVSSQSDDDTVIQFCAMHIFVKELEVWKHSSTMNNFHIRSKSSKGIFRSLIALFNTRISYKTIDTNLNSTNTVLMQIDHVVKNISECYKSAFKDLSINVTQNMQFHSFLQRIIEMTVSGCPITKCDPLIEYEVRFTILNGFLESLSSNTSKFKDNIILLRKEIQHLQAYIYIYIHIVN
